Experimental data reported in the nanobody polyreactivity screen of Harvey et al. (2022).

assay: yeast display, Sf9 membrane polyspecificity reagent, FACS + sequencing; frameworks hold sequencing errors
In short: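 Nanobodies came from a synthetic yeast display library in Saccharomyces cerevisiae BJ5465, induced with galactose for 36–48 hours and stained for 1 hour at 4 °C with 10% biotinylated, detergent-solubilized Sf9 membrane reagent. Cells were enriched on streptavidin microbeads and then FACS-sorted, with low and high (top ~1%) gates set on anti-HA fluorescence for expression and streptavidin fluorescence for reagent binding. Each polyreactivity label reflects the gate a clone came from. Genes were amplified by colony PCR, sequenced by MiSeq 2 × 250 and filtered by CDR length.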

Row | Sequence | polyreactivity (PSR sort gate)
1 | QVQLVDSGGGLVQAGGSLRLICAASGRTFGGNTMGWYREAPGKERELVAAISRRGGSTYYADSVKGRFSISRDNAKNTVYLQMNSLKPEDTAVYYCNKDGPSYSSYDYWGQGTQVTVSS | low polyreactivity
2 | QVQLVDSGGGLVQAGGSLRLICAASGSIFIDKAMGWYRQAPGKERELVAAISWSGGRTYYADSVKGRFTISRDNAKNTVYLQMNSLKPEDTAVYYCAVDFRHPYDYDYWGQGTQVTVSS | high polyreactivity
3 | QVQLVDSGGGLVQAGGSLRLSCAAAGSNLSQYAMGWYRQAPGKERELVAAITYGGGSTYYADSVKGRFTISRDNAKKTVHIQMISLKPEDPAVYYCALEFTYWGDPYDYWGQGTQVTVSS | low polyreactivity
4 | QVQLVDSGGGLVQAGGSLRLSCAASGFIDALDAMGWYRQAPGKERELVAAISYSGGSTYYADSVKGRFTISRDNAKNTVYLQMNSLKPEDTAVYYCAVYYRSAFYYWGQGTQVTVSS | high polyreactivity
5 | QVQLVDSGGGLVQAGGSLRLSCAASGFIFDTNVMGWYRQAPGKERELVAAISWDVDSTYYADSVKGRFTISRDNAKNTVYLQMNSLKPEDTAVYYCATETFDYYGLAGEYWGQGTQVTVSS | high polyreactivity
6 | QVQLVDSGGGLVQAGGSLRLSCAASGFIFFQNAMGWYRQSPGKERELVAAISRRGGSTYYADSVKGRFTISRDNAKNTVYLQRNSLTPDDTAGYYCAARSRCDLASRYTGDYWGQGTQLTVSS | low polyreactivity
7 | QVQLVDSGGGLVQAGGSLRLSCAASGFIFTQYAMGWYRQAPGQDRELVAAISRSGSSTYYADSVKGRFTISRDNAKNTVSLQMNSLKPEDTAVYYCAAKGSRGTRYWGEDYWGQGTQVTVSS | low polyreactivity
8 | QVQLVDSGGGLVQAGGSLRLSCAASGFIFVRYAMGWYRQAPGKERELVAAISWSGARTYYADSVKGRFTISRDNAKNTVYLQFNSLKPEDSAVYYCAADSLDAGYYGYDYWGQGTQVGVSS | high polyreactivity
9 | QVQLVDSGGGLVQAGGSLRLSCAASGFTFRPYAMGWYRQAPGKERELVATITGRGGSTYYADSVKGRFTISRDTAKNTVYLQMNSLKPEDTAVYYCASRARYSPAPYDYWGQGTQVTVSS | high polyreactivity
10 | QVQLVDSGGGLVQAGGSLRLSCAASGFTFVYYFMGWYRQAPGKERELVAAITRSCRTYYADSVKGRFTISRDNAKNTVYLQMNSLKPEDTAVYYCARGYGYADHAMGYWGQGTQVTVSS | high polyreactivity
11 | QVQLVDSGGGLVQAGGSLRLSCAASGFTFYLYTMGWYRPAPGKERQLVATITSDGGTNYADSVKGRFTISRDNAKNTVYLQMNSLKPEDTAVYYCNAASRRGSRKQAKYDYWGQGTQVTVSS | low polyreactivity
12 | QVQLVDSGGGLVQAGGSLRLSCAASGFTFYRYAMGWYRQAPGKERELVAAITGRAGRTYYADSVKGRFTISRDNAKNTVYLQMNSLKPEDTAVYYCSGYRYYGGYGYWGQGTQVTVSS | high polyreactivity
13 | QVQLVDSGGGLVQAGGSLRLSCAASGFTIKYYAMVWYRQAPGKERELVATITSGARTNYADSVKGRFTISRDNAKNTVYLQMNSLKPEDTAVYYCATPYSAYWQNERDYWGQGTQVTVSS | high polyreactivity
14 | QVQLVDSGGGLVQAGGSLRLSCAASGGTFKYYAMGWYRQAPGKERELVAAITWSGGSTYYADSVKGRFTISRDNAKNTVYLQMNSLKPEDTAVYYCNAAYSQIRFNYWGQGTQVTVSS | high polyreactivity
15 | QVQLVDSGGGLVQAGGSLRLSCAASGGTFQGNAMGWYRQAPGKEREFVATITRGGGSKYYADSVKGRFTISRDNAKNTVYLQMNSLKPEDTAVYFCNAYLVSRYPGDYWGQGTQVTVSP | high polyreactivity
16 | QVQLVDSGGGLVQAGGSLRLSCAASGGTLRYYAMGWYRQAPGTEREFVASISRSGGSTYYADSVKGRFTISRDTAKYTVYLQMNSLKPVDTAVYYCADVKSSGSPRARYGYWGQGTQVTLSS | high polyreactivity
17 | QVQLVDSGGGLVQAGGSLRLSCAASGITFSGYDMGWYRQAPWKERELVADITISTGSTYYADSVKGRYTISRDNAKNSVYLQMNSLKPEDTAVYYCAADWTGGFYTWYVIPYDYWGQGTQVTVSS | low polyreactivity
18 | QVQLVDSGGGLVQAGGSLRLSCAASGITFTRYAMGWYRQAPGKERELVAAISSGGRTNYADSVKGRFTISRDNAKNTVYLQMNSLKREDTAVYYCNALYRARWGLGTQVTVSS | high polyreactivity
19 | QVQLVDSGGGLVQAGGSLRLSCAASGLIFLYYAMGWYRQAPGKERELVAAISSSGSTYYADSVKGRFTISRDNAKNTVYLQMNSLKPEDTAVYYCAARWTRNYGMNYWGQGTQVTVSS | high polyreactivity
20 | QVQLVDSGGGLVQAGGSLRLSCAASGLTFYSNAMGWYRQAPGKEREFVASITRRTGITFYAVSVKGRFTISRDNAKNTVYLQMNSLKPYDTAVYYCATRGGYPKGYGYLAFNYWGQGTQVTVSS | high polyreactivity
21 | QVQLVDSGGGLVQAGGSLRLSCAASGNIFVGNAMGWYRQAPGKERELVAAIRRSGGTTYYADSVKGRFTISRDNAKNTVYLQMNSLKPEDTAVYYCAASRPYQGDYWGQGTQVTVSS | low polyreactivity

Row | Sequence | polyreactivity (PSR sort gate)
22 | QVQLVDSGGGLVQAGGSLRLSCAASGRIFRYNTMGWYRQAPGKEREFVAAITQRGVNTYYADSVKGRFTISRDNAKNTVYLQMNRLKPEDTAVYYCNAKRYSYWIYRAYDYWGQGTQVTVSS | low polyreactivity
23 | QVQLVDSGGGLVQAGGSLRLSCAASGRIFRYYAMGWSRQAPGKERELVARITNGAITNYADSVKGRFTISRDNAKNTLYLQRNSLKPEETAVYYCAATQNLYRCGYWGQGTQVTVSS | high polyreactivity
24 | QVQLVDSGGGLVQAGGSLRLSCAASGRIFWHNAMGWYRQAPGKERELVAAITGGGSTYYADSVKGRFTMSRVNAKNTVYLQKNSLIPEDTAVYYCATLGSLRYYWPGYDYWGQGTQVTVSS | low polyreactivity
25 | QVQLVDSGGGLVQAGGSLRLSCAASGRIFYAYDMGWYRQAPGKERELVADITSSGSTNYADSVKGRFTISRDNAKNTVYLQMNSLKPEDTAVYYCNTEPSGYESGYWGQGTQVTVSS | low polyreactivity
26 | QVQLVDSGGGLVQAGGSLRLSCAASGRIFYFNAMGWYREAPGKERELVAAISKSGGSTYYADSVKGRFTISRDNAKNTVYLQMNSLKPEDTAVYYCAAGFWYYSYPTLYEYGYWGQGTQVTVSS | low polyreactivity
27 | QVQLVDSGGGLVQAGGSLRLSCAASGRIFYSYAMGWYRQAPGKERELVAAISRSGGRTYYADSVKARFTISRDNAKNTVYFQMNSLKPEDTAVYYCAADGRVGEEEYWGQGTQVTVSS | high polyreactivity
28 | QVQLVDSGGGLVQAGGSLRLSCAASGRNFARYSMGWYRQAPGTERELVAAISWCGTSTYYADSVKGRYTISRDNAKNTVYLQMNSLKPEDTAVYYCAATYLYRDQPKWGGFAYTYGHWGQGTQVTVSS | high polyreactivity
29 | QVQLVDSGGGLVQAGGSLRLSCAASGRTFGVYAMGWYRQAPGKERELVAVINRSGGSTYYADSVKGRFTISRDNAKNTVYLQMNSLKPEDTAVYYCAARVTSHMYYWGQGTQVTVSS | high polyreactivity
30 | QVQLVDSGGGLVQAGGSLRLSCAASGRTFHKYAMGWYRQAPGKERELVAAISNGGRTYYADSVKGRFTISRDNAKNTLYLQMNSLKPEDTAVYYCNADRTWKGRQYDYWGQGTQVTVSS | high polyreactivity
31 | QVQLVDSGGGLVQAGGSLRLSCAASGRTIGFYAMGWYRQAPGKERELVAAINRSGDSTYYADSVKGRFTISRDNAKNTVYLQMNSLKPEDTAVYYCAASYGYRYEYWGQGTQVTVSS | high polyreactivity
32 | QVQLVDSGGGLVQAGGSLRLSCAASGRTSRRYAMGWYRQEPGKERELVAAIRGSGGSTYYADSVKGRFTISRDNAKNTVYLQMNSLKPEDTAVYYCAARSPRASGNSDYWGQGTQVTVSS | high polyreactivity
33 | QVQLVDSGGGLVQAGGSLRLSCAASGRTYFWNAMGWYRQAPGKERELVAAITWSGGSTYYADSVKGRFTISRDNAKNTVYLQMNSLKPEDTAVYYCAAVVSDYVWRYEYWGQGTQVTVSS | low polyreactivity
34 | QVQLVDSGGGLVQAGGSLRLSCAASGSIFAYYTIGWYRQAPRKERELVAAITSGGSTNYADSVKGRFTISRDNAKNTVYLQMNSLKPEDTAVYYCAVQGSRYSYRYGYRFRTMDYWGQGTQVTVSS | high polyreactivity
35 | QVQLVDSGGGLVQAGGSLRLSCAASGSIFFENDMGCYRQAPGKEREFVAAISLSSTSTYYADSVKGRFTISRDNAKNTVYLQMNSLKPEDTAVYYCAADAIFGWPTFDFWGQGTQVTVSS | low polyreactivity
36 | QVQLVDSGGGLVQAGGSLRLSCAASGSIFLLYVMGWYRQAPGKERELVAAISSGGSTNYADSVKGRFTISRDNAKITVYLQMNSLKPEDTAVYYCNAVAGPQGVKLYDYWGQGTQVTVSS | low polyreactivity
37 | QVQLVDSGGGLVQAGGSLRLSCAASGSIFPRYAMGWYRQAPGKERELVASISASGGSTYYADSVKGRFTISRDNAKITVYLQMYSLKPEDTAVYYCAKADRTGWLDGDYWGQGTQVTVSS | low polyreactivity
38 | QVQLVDSGGGLVQAGGSLRLSCAASGSIFRYKAMGWYRQAPGKERELVAAISWSGGRTYYADSVKGRFTISRDNAKNTVYLQMNSLKPEDTAVYYCAAAWYSSSRYQGIYRFAYWGQGTQVTVSS | high polyreactivity
39 | QVQLVDSGGGLVQAGGSLRLSCAASGSIFSVNAMGWYRQAPGKERQLVAAISVRGGRTYYADSVKGRFTISRDNAKNTVYLQMNSLIPEDTAVYYCATRISTVGRYDYWGQGTQVTVSS | high polyreactivity
40 | QVQLVDSGGGLVQAGGSLRLSCAASGSIFVGNAMGWYRQAPGKERELVAAISWRGGRTYYADSVKGRFTISRDNAKYTVYLQMNSLKPEDTAVYYCATVKARDYGYWGQGTQVTVSS | high polyreactivity
41 | QVQLVDSGGGLVQAGGSLRLSCAASGSIFYVNAMGWYRQAPGKERELVASITQSGGSTYYADSVKRRFTISRDNAKNTVDLQMNILKPEDTSVYYCNADIHVYPTRTRYYYWGQGTQVTVSS | low polyreactivity
